Assay [1] has as its system NPD1 synthesis. Briefly: NPD1 synthesis and release from polarized primary human RPE cell monolayers (lipidomic analysis). The class given is cell-based. The note with it: 72 hr. As for the experimental part: Human RPE cells. Cultures of retinal pigment epithelial (RPE) cells were prepared. RPE cells were seeded onto Millicell-HA culture plate inserts (Millipore, Bradford, Mass.), placed in 24-well plates, and allowed to reach confluence. Consent for use of tissue for research was obtained in compliance with Federal and State law and institutional regulations. Cultures were maintained in Chee's essential replacement medium until the experiments were performed as described in J. Hu and D. Bok (2001) Mol Vis 7:14-19. The medium includes Eagle's minimal essential medium with calcium (MEM, Irvine Scientific, Irvine, Calif.), 1% heat-inactivated calf serum (JRH Bioscience, Lennexo, Kans.), amino acid supplements, and 1% bovine retinal extract. The Millicell-HA filter inserts allow separate manipulation of the culture media bathing the apical and basal surfaces of the RPE monolayer and measurement of the transepithelial resistance (TER), which provides a measure of cell differentiation and confluency. Cultures were used for experiments once they developed a TER of at least 400 Ω·cm^2, as measured by an Epithelial Volt-ohmmeter (EVOM, World Precision Instruments, New Haven, Conn.).
Exposure of RPE cells to growth factors. […] […] The lower chamber was filled with 500 μl media (bathing the basal cell monolayer surface) containing 0.1% HSA. Cells were incubated for 72 hours, then apical and basal media were removed and collected for analysis. After allowing the cells to rest for at least 72 hours on fresh media, the experiments were repeated.
Lipidomic analysis. Human RPE primary cell cultures or ARPE-19 cells were separated from culture media and washed with 1 ml PBS. After addition of 1 ml methanol, cells were scraped from plates or millicell membranes and collected for lipid extraction. Media was spun-down to separate cell debris, then 350 μl were collected in 1 ml of cold chloroform:methanol (1:1). Protein precipitates were then separated by centrifugation at 1500×g (5 min, 4° C.). Lipid extracts were collected, and kept under nitrogen at −80° C. until solid-phase purification; extracts were pre-equilibrated at pH 3.0 in 10% methanol/water, then loaded to 500 mg C18 columns (Varian, Inc., Palo Alto, Calif.), and eluted with 1% methanol/ethyl acetate. Eluates were concentrated on a N2 stream evaporator. Samples were loaded to a liquid chromatograph-tandem mass spectrometer (LC-TSQ Quantum, Thermo-Finnigan; Thermo Fisher Scientific, Waltham, Mass.) installed with a Biobasic-AX column (Thermo-Hypersil-Keystone, Thermo Fisher Scientific, Waltham, Mass.) (100 mm\2.1 mm, 5-μm particle sizes), and eluted in a linear gradient [100% solution A (40:60:0.01 methanol/water/acetic acid pH 4.5) to 100% solution B (99.99:0.01 methanol/acetic acid)], at a flow rate of 300 μl/min for 30 minutes. LC effluents were diverted to an electro-spray-ionization probe (ESI) on a TSQ Quantum (Thermo-Finnigan, Thermo Fisher Scientific, Waltham, Mass.) triple quadrupole mass spectrometer. NPD1 and resolving D1 were obtained by biogenic synthesis as described in N. G. Bazan, D. L. Birkle, and T. S. Reddy (1984) Biochem Biophys Res Commun. 125:741-74, and V. L. Marcheselli et al. (2003) J. Biol. Chem. 278:43807-43817. Erratum in: (2003) J Biol Chem 278:51974. Other lipid standards (Cayman Chem. Ann Arbor, Mich.) were used for tuning and optimization and to create calibration curves. The instrument was set on full-scan mode, to detect parent ions, and selected reaction mode (SRM) for quantitative analysis, to detect product ions, simultaneously. The selected parent/product ions (m/z) and collision energy (v) obtained by running on negative ion detection mode were: 359.2/153.1/20 for NPD1, 343.2/281.2/18 for resolving D1, 351.2/195.0/22 for 20HO-LTB4 (used as internal standard), 327.2/283.3/16 for DHA, 311.3/267.3/20 Arachidonic Acid-d8 (used as internal standard, IS).
Neurotrophins activated NPD1 synthesis in cultured primary human RPE cells. […]

Assay [2] concerns NPD1 synthesis. Description: NPD1 synthesis in cultured ARPE-19 cells (lipidomic analysis). The class given is cell-based, human. The note with it: serum starvation/H2O2/TNFα oxidative stress for the combination. As for the experimental part: (§1) Exposure of ARPE-19 cells to growth factors. Cells at 75-80% confluence (72 hr growth in DMEM/F12+10% FBS) were serum-starved for 2 hr before exposure to growth factors. The serum-starved cells were treated with TNF-α (Sigma-Aldrich Corporation, St. Louis, Mo.) (10 ng/ml) and H2O2 (600 μM) to induce oxidative stress and challenged with increasing concentrations (10, 30, 50 nM) and PEDF (Chemicon International, Temecula, Calif.) (50 ng/ml) simultaneously with oxidative stress for 4 hr before harvesting for protein analysis. Cell extracts were made and protein concentrations were adjusted by Bio-Rad protein reagent and used for Western-blot analysis. To study neuroprotection by DHA and PEDF in the oxidative stress-induced ARPE-19 cells, 72 hr cells were serum-starved for 8 hr before the introduction of oxidative stress and challenged with DHA and PEDF for 15 hr. Cells were analyzed to detect Hoechst-positive apoptotic cells.
Lipidomic analysis. Human RPE primary cell cultures or ARPE-19 cells were separated from culture media and washed with 1 ml PBS. After addition of 1 ml methanol, cells were scraped from plates or millicell membranes and collected for lipid extraction. […] The instrument was set on full-scan mode, to detect parent ions, and selected reaction mode (SRM) for quantitative analysis, to detect product ions, simultaneously. […]

A further assay concerns Bcl-2 and Bfl-1. Briefly: Anti-apoptotic protein expression in ARPE-19 cells under serum starvation/H2O2/TNFα oxidative stress (Western blot). The class given is cell-based, human. The note with it: DHA 10 to 50 nM, with or without PEDF. As for the experimental part: as §1, with “To study neuroprotection by DHA and PEDF in the oxidative stress-induced ARPE-19 cells, 72 hr cells were serum-starved for 8 hr before the introduction of oxidative stress and challenged with DHA and PEDF for 15 hr.” left out
(§2) Analysis of Bcl-2 and caspase-3 cleavage. Bcl-2 protein and caspase-3 cleavage were analyzed by Western-blot analysis. […] The membranes were probed with primary antibodies against Bcl-2 (Santa Cruz Biotechnology, Inc., Santa Cruz, Calif.) and cleaved caspase-3 (Asp-175) (Cell Signaling) at room temperature and treated for 20 minutes with the secondary antibody, goat anti-rabbit IgG: horseradish peroxidase, and horseradish peroxidase-conjugated anti-biotin antibody, then proteins were detected by using an ECL kit (Amersham Biosciences, Buckinghamshire, United Kingdom). […]

A further assay relates to Bid, Bax, and Bad. Description: Pro-apoptotic protein expression in ARPE-19 cells under serum starvation/H2O2/TNFα oxidative stress (Western blot). The note with it: DHA 10 to 50 nM, with or without PEDF. The class given is cell-based, human. How it is done: as §1, with “To study neuroprotection by DHA and PEDF in the oxidative stress-induced ARPE-19 cells, 72 hr cells were serum-starved for 8 hr before the introduction of oxidative stress and challenged with DHA and PEDF for 15 hr.” left out
as §2

B1: PEDF: pigment epithelium-derived factor, a member of the serine protease inhibitor (serpin) family (protein, UniProt P36955 20-418, looked up)
Pigment epithelium-derived …: QNPASPPEEGSPDPDSTGALVEEEDPFFKVPVNKLAAAVSNFGYDLYRVRSSTSPTTNVLLSPLSVATALSALSLGAEQRTESIIHRALYYDLISSPDIHGTYKELLDTVTAPQKNLKSASRIVFEKKLRIKSSFVAPLEKSYGTRPRVLTGNPRLDLQEINNWVQAQMKGKLARSTKEIPDEISILLLGVAHFKGQWVTKFDSRKTSLEDFYLDEERTVRVPMMSDPKAVLRYGLDSDLSCKIAQLPLTGSMSIIFFLPLKVTQNLTLIEESLTSEFIHDIDRELKTVQAVLTVPKLKLSYEGEVTKSLQEMKLQSLFDSPDFSKITGKPIKLTQVEHRAGFEWNEDGAGTTPSPGLQPAHLTFPLDYHLNQPFIFVLRDTDTGALLFIGKILDPRGP
Regarding B1, the “NPD1 synthesis and release through the apical surface” value with NPD1 synthesis [1] (growth factors 20 ng/ml added to apical medium) is recorded as “by far the most potent stimulator of NPD1 synthesis”. Moreover, in the assay with NPD1 synthesis [1] (increasing concentrations), the “NPD1 release, neurotrophin added to the apical medium” value was “concentration-dependent increases in NPD1 release only on the apical side” and the “NPD1 release, neurotrophin added to the basal medium” value is reported as “much less NPD1 release on the apical side”. In addition, in the assay with NPD1 synthesis [2], the “NPD1 synthesis in ARPE-19 cells” value is listed as “up-regulate NPD1 synthesis”. In the assay on Bcl-2 and Bfl-1, the “Bcl-2 and Bfl-1 anti-apoptotic protein expression” value was “unable to alter the expression of pro- and anti-apoptotic proteins”. The “Bid, Bax and Bad pro-apoptotic protein expression” value in the assay on Bid, Bax, and Bad is “unable to alter the expression of pro- and anti-apoptotic proteins”.

These data come from patent publication US20100303887A1, “DHA and PEDF, a Therapeutic Composition for Nerve and Retinal Pigment Epithelial Cells” (priority 2007, published 2010).
